Common to all, as to experiment: Bio-Plex bead immunoassay, multiplexed beads, single antigen, single detection antibody
The target in experiment [1] is recombinant SPON1 protein (R&D Systems Cat. # 3135-SP/CF) (Homo sapiens (Human)) (UniProt Q9HCB6).
In experiment [2] the target is recombinant MIA protein (R&D Systems DuoSet Cat. # DY2050) (human) (UniProt Q16674).
For experiment [3], the target named is recombinant HSP27 protein (R&D Systems DuoSet Cat. # DY1580) (human) (UniProt P04792).
Experiment [4] has as its target recombinant MIC-1 protein (R&D Systems DuoSet Cat. # DY957) (human) (UniProt Q99988).
In experiment [5] the target is recombinant OPN protein (R&D Systems Cat. # 1433-OP-050) (Homo sapiens (Human)) (UniProt P10451).
Experiment [6] addresses recombinant CEACAM-1 protein (R&D Systems DuoSet Cat. # DY2244) (human) (UniProt P13688).
UniProt P13688, sequence (P13688 35-428 limits assumed): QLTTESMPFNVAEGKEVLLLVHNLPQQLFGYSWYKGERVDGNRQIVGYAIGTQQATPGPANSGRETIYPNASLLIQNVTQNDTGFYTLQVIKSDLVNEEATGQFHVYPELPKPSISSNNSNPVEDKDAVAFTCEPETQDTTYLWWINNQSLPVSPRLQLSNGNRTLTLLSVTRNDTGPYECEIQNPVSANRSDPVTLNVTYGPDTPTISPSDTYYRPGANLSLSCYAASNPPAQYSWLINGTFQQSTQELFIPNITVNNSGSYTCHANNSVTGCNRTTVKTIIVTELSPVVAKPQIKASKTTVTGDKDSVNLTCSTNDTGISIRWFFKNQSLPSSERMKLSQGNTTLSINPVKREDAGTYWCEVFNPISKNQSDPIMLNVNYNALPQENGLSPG

UniProt P04792, sequence (P04792 whole entry): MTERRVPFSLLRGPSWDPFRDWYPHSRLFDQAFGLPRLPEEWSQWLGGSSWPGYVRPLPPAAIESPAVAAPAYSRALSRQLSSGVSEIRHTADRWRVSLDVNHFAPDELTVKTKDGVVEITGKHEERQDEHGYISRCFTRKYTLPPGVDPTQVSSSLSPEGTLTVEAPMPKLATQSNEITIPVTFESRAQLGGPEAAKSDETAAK
UniProt Q9HCB6, sequence (Q9HCB6 29-807 limits assumed): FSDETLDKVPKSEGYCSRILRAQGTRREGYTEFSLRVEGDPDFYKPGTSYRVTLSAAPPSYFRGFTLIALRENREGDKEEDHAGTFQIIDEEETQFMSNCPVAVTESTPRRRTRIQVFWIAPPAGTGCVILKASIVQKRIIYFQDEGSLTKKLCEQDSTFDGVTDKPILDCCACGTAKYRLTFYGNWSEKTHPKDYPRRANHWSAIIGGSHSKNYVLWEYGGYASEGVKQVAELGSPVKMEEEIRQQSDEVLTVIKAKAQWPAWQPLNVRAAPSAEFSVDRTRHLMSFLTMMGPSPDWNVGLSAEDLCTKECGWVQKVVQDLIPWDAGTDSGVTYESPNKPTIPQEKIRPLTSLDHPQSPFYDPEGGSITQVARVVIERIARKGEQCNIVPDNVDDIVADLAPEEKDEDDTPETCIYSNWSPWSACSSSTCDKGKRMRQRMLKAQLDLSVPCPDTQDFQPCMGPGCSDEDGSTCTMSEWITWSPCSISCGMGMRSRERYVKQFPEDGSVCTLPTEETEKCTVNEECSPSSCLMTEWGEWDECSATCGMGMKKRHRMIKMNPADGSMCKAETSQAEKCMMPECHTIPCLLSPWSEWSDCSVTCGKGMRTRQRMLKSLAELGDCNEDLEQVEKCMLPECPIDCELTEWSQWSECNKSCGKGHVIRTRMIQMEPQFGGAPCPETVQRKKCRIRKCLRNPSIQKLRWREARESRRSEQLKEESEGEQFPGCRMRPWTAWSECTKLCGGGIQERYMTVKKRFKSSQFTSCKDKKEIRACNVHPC
UniProt Q99988, sequence (Q99988 197-308 limits assumed): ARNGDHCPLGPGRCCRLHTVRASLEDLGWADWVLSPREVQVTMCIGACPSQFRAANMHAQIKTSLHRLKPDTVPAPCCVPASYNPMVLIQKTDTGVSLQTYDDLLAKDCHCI
UniProt Q16674, sequence (Q16674 25-131 limits assumed): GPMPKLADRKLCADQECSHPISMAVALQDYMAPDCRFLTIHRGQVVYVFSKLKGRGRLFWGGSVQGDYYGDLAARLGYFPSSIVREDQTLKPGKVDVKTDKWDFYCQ
UniProt P10451, sequence (P10451 other isoform, or with tags, fused parts or gaps limits assumed): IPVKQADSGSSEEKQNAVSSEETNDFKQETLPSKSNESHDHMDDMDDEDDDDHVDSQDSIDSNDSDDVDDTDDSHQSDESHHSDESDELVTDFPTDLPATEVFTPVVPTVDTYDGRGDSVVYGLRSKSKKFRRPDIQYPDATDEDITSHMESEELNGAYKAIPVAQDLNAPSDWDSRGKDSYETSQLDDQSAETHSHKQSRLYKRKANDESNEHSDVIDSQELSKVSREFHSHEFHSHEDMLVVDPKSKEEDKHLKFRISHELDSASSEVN

Regarding “CEACAM-1 capture antibody (R&D Systems DuoSet Cat. # DY2244, mouse)”, the % cross-reactivity (single-detection antibody) in experiment [1] was 0%; in experiment [2] it was 0.2%; in experiment [3], 0%; in experiment [4], 0%; in experiment [5], 0%.
With “MIA capture antibody (R&D Systems DuoSet Cat. # DY2050, mouse)”, the % cross-reactivity (single-detection antibody) amounted to 0.3% in experiment [1]; 0.1% in experiment [3]; 0.1% in experiment [4]; 0.3% in experiment [5]; 0.4% in experiment [6].
Regarding “MIC-1 capture antibody (R&D Systems DuoSet Cat. # DY957, mouse)”, the % cross-reactivity (single-detection antibody) in experiment [1], in experiment [2], in experiment [3], in experiment [5] and in experiment [6] was 0% each time.
As for “OPN capture antibody (R&D Systems Cat. # MAB14332, mouse)”, the % cross-reactivity (single-detection antibody) in experiment [1], in experiment [2], in experiment [3], in experiment [4] and in experiment [6] was 0% in each case.

The values are drawn from patent US20180216194A1.
